For data set [1], the target named is T1, cyIL-18Rβ-HisAvi (cynomolgus monkey).
T1 construct: Soluble analyte in SPR; also called cyno IL-18Rβ; cynomolgus monkey IL-18Rβ
T1 chain: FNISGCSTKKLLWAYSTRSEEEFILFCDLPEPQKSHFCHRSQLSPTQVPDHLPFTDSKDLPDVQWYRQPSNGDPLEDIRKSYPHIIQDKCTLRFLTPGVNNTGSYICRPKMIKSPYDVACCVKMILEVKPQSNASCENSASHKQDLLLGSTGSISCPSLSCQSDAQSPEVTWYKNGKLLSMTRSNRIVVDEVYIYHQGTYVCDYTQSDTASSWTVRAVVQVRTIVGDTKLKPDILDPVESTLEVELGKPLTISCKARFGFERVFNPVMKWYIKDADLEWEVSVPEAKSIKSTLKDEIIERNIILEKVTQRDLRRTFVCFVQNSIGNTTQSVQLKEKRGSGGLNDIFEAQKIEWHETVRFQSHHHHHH
The experiment in a line: SPR T200, mAb on anti-hFc, 37C, pH 6.

Data set [2] deals with T2, huIL-18Rβ-HisAvi (human, UniProt O95256 20-356, biotinylated in the Octet blocking assay).
T2 construct: Soluble analyte in all SPR runs; captured on streptavidin sensors in the Octet assay; also called human IL-18Rβ; human IL-18Rβ-Avi-His
T2 sequence: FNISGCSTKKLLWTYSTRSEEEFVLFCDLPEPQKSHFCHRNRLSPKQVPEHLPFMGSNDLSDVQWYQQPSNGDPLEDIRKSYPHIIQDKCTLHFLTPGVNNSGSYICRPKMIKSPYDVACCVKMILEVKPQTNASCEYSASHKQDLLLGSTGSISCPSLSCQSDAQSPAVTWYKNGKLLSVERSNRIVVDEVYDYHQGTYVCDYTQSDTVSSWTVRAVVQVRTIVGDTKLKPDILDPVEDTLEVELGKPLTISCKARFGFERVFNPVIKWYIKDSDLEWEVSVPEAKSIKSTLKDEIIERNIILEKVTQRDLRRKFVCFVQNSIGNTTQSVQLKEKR
As to the kind of experiment: SPR T200, mAb on anti-hFc, 37C, pH 6.

Data set [3] addresses T2, huIL-18Rβ-HisAvi. The experiment in a line: SPR T200, pH 7.4 and pH 6.
The target of data set [4] is T1, cyIL-18Rβ-HisAvi. The experiment in a line: SPR T200, mAb on anti-hFc, 37C, pH 7.4.
The target of data set [5] is T2, huIL-18Rβ-HisAvi. The experiment in a line: SPR T200, mAb on anti-hFc, 37C, pH 7.4.
For data set [6], the target named is T3, human IL-18Rβ on cells (human, UniProt O95256 20-599).
T3 sequence: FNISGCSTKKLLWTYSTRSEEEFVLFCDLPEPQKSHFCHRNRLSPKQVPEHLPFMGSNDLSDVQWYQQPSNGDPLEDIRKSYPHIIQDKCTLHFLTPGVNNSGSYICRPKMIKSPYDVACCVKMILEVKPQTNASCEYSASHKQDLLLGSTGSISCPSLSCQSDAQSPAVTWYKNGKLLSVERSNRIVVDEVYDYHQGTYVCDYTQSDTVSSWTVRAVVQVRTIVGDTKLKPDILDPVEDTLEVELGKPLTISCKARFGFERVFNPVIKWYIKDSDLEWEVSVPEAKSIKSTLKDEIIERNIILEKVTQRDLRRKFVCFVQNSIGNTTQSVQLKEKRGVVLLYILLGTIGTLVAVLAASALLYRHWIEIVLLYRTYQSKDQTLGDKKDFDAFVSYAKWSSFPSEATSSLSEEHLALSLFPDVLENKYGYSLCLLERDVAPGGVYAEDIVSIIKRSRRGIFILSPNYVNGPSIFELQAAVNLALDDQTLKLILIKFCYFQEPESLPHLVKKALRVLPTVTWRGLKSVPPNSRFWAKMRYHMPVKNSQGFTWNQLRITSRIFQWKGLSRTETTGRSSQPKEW
As to the kind of experiment: cell-based or functional assay.

Data set [7] has as its target T2, huIL-18Rβ-HisAvi. The experiment in a line: SPR Biacore T200, mAb captured on anti-human Fc, huIL-18Rβ-HisAvi as analyte, PBST pH 5.5, 37 °C, 1:1 Binding fit. (In general: In SPR one partner is held on a chip, and binding of the other changes the refractive index at the surface.)
Data set [8] deals with the molecule itself. As to the kind of experiment: clone self-interaction BLI, antibody on AHQ sensor against 1 µM of the same antibody.
The target in data set [9] is T3, human IL-18Rβ on cells. The experiment in a line: cell-based or functional assay. The source holds these as a separate data set.
In data set [10] the target is T2, huIL-18Rβ-HisAvi. As to the kind of experiment: SPR T200, mAb on anti-hFc, 37C, pH 7.4. This is another data set of the same source.
For data set [11], the target named is T2, huIL-18Rβ-HisAvi. As to the kind of experiment: SPR screen, 1:1 fit.
Data set [12] addresses T2, huIL-18Rβ-HisAvi. The experiment in a line: SPR T200, pH 5 against pH 7.4.
Data set [13] deals with T2, huIL-18Rβ-HisAvi. The experiment in a line: SPR T200, mAb on anti-hFc, 37C, pH 5.
The target in data set [14] is T2, huIL-18Rβ-HisAvi. As to the kind of experiment: SPR T200, pH 7.4; sample stored at pH 6, 4 w 40C.
For data set [15], the target named is T2, huIL-18Rβ-HisAvi. As to the kind of experiment: SPR Biacore T200, mAb captured on anti-human Fc, huIL-18Rβ-HisAvi as analyte, PBST pH 6.0, 37 °C, 1:1 Binding fit.
In data set [16] the target is T2, huIL-18Rβ-HisAvi. As to the kind of experiment: SPR T200, pH 7.4; sample stored at pH 8, T0.
Data set [17] deals with T3, human IL-18Rβ on cells. The experiment in a line: cell-based or functional assay. This is another data set of the same source.
The target in data set [18] is T2, huIL-18Rβ-HisAvi. The experiment in a line: SPR T200, pH 7.4; sample stored at pH 8, 4 w 4C.
Data set [19] addresses T2, huIL-18Rβ-HisAvi. As to the kind of experiment: SPR T200, pH 7.4; sample stored at pH 6, 4 w 4C.
Data set [20] concerns the target T2, huIL-18Rβ-HisAvi. As to the kind of experiment: SPR T200, mAb on anti-hFc, 37C, pH 7.4; sample stored at pH 6, T0.
Data set [21] concerns the target T2, huIL-18Rβ-HisAvi. As to the kind of experiment: SPR T200, pH 7.4; sample stored at pH 8, 4 w 40C.

Here are results for three molecules from patent US20250230251A1 (Bristol-Myers Squibb, published 2025).

Residue numbers refer to the chain shown, from its start. Where two headings read alike, the source gives them in different places.

B1: P20-V4 (antibody, human IgG1, kappa, name in Kabat numbering)
heavy: QVQLQESGPGLVKPSETLSLTCTVSGGSINNYYWSWIRQPPGKGLEWIGYIFYSGTTNYNPSLKSRVTISVDTSKNQFSLKLSSVTAADTAVYYCARDVGIAARNSYYYVMDVWGQGTTVTVSSASTKGPSVFPLAPSSKSTSGGTAALGCLVKDYFPEPVTVSWNSGALTSGVHTFPAVLQSSGLYSLSSVVTVPSSSLGTQTYICNVNHKPSNTKVDKRVEPKSCDKTHTCPPCPAPEAEGAPSVFLFPPKPKDTLMISRTPEVTCVVVDVSHEDPEVKFNWYVDGVEVHNAKTKPREEQYNSTYRVVSVLTVLHQDWLNGKEYKCKVSNKALPAPIEKTISKAKGQPREPQVYTLPPSREEMTKNQVSLTCLVKGFYPSDIAVEWESNGQPENNYKTTPPVLDSDGSFFLYSKLTVDKSRWQQGNVFSCSVMHEALHNHYTQKSLSLSPG
light: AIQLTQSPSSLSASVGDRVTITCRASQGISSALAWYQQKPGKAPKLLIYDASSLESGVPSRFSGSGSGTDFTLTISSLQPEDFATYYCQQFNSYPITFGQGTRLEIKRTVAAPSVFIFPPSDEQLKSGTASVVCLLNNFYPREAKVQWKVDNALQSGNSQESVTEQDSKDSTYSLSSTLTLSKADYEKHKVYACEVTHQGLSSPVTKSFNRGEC
notes: built from the chains of the parent P20 with the printed mutations
One may read the Kd as a measure of binding affinity in units of concentration. Broadly, the koff is a measure of how fast the partners let go of each other. The low end stands for slow dissociation, the high end for fast dissociation. In general, kon refers to the rate constant with which the complex forms. The low end stands for slower complex formation, the high end for faster complex formation. As for B1, the Kd in data set [1] stood at 42 nM; in data set [2] it was 14 nM; in [4], 88 nM; in data set [5] it was 42 nM. The koff was found to be 0.002 s⁻¹ in [1], 0.0037 s⁻¹ in data set [2], 0.002 s⁻¹ in [4] and 0.0018 s⁻¹ in data set [5]. Besides, the kon stood at 48000 M⁻¹ s⁻¹ in [1], 270000 M⁻¹ s⁻¹ in data set [2], 23000 M⁻¹ s⁻¹ in [4] and 44000 M⁻¹ s⁻¹ in data set [5]. The “fold weaker binding than the parent P20” value in data set [3] came to 100 fold. Also, the “IC50, LPS+IL-12 dependent IFNg production, human whole blood” value (“IC50 … human whole blood” for short) in [6] was determined as 37.6 nM.

B2: P20-V5 (antibody, human IgG1, kappa, name in Kabat numbering)
heavy: B1 heavy with E6Q
light: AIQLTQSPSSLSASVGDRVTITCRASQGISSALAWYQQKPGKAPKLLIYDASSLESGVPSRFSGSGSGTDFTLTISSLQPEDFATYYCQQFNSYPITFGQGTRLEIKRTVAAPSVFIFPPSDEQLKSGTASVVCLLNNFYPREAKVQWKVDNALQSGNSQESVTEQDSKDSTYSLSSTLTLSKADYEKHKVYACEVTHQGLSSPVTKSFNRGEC
notes: built from the chains of the parent P20 with the printed mutation
Turning to B2, the Kd in data set [1] came out at 5.5 nM; in [2], 1.8 nM; in [4], 40 nM; in [5], 19 nM. Also, the koff in data set [1] worked out at 0.00097 s⁻¹; in data set [2], 0.00059 s⁻¹; in data set [4], 0.0013 s⁻¹; in data set [5] it was 0.0011 s⁻¹. Moreover, the kon in [1] amounted to 180000 M⁻¹ s⁻¹; in [2], 340000 M⁻¹ s⁻¹; in data set [4] it was 34000 M⁻¹ s⁻¹; in data set [5], 56000 M⁻¹ s⁻¹. Besides, the “fold weaker off-rate and KD than the parent P20” value in data set [3] amounted to 10 fold. Moreover, the “IC50 … human whole blood” value in data set [6] was determined as 21.2 nM.

B3: P8 (antibody, human IgG1, kappa)
heavy: QVQLVQSGAEVKKPGASVRVSCKASGYTFTSYYMHWVRQAPGQGLEWMGIINPRGGYTTYAQKFQGRVTMTRDTSTSTVYMELSSLRSEDTAVYYCAKEGRVSPTDYYGMDVWGQGTTVTVSSASTKGPSVFPLAPSSKSTSGGTAALGCLVKDYFPEPVTVSWNSGALTSGVHTFPAVLQSSGLYSLSSVVTVPSSSLGTQTYICNVNHKPSNTKVDKRVEPKSCDKTHTCPPCPAPEAEGAPSVFLFPPKPKDTLMISRTPEVTCVVVDVSHEDPEVKFNWYVDGVEVHNAKTKPREEQYNSTYRVVSVLTVLHQDWLNGKEYKCKVSNKALPAPIEKTISKAKGQPREPQVYTLPPSREEMTKNQVSLTCLVKGFYPSDIAVEWESNGQPENNYKTTPPVLDSDGSFFLYSKLTVDKSRWQQGNVFSCSVMHEALHNHYTQKSLSLSPG
light: not shown
notes: Human IgG
Regarding B3, the Kd in data set [7] came out at 1.08 nM; in data set [10], 1.2 nM; in data set [11] it was 0.094 nM; in data set [2], 0.18 nM; in data set [13], 0.41 nM; in data set [14], 0.6 nM. Moreover, the Kd amounted to 1.24 nM in data set [15]; 0.85 nM in data set [16]; 0.81 nM in data set [18]; 0.8 nM in data set [19]; 0.83 nM in data set [20]; 0.96 nM in data set [5]. Also, the Kd in data set [21] was 0.78 nM. The koff amounted to 0.000511 s⁻¹ in data set [7]; 0.00038 s⁻¹ in data set [10]; 0.00024 s⁻¹ in [2]; 0.00022 s⁻¹ in data set [13]; 0.00044 s⁻¹ in [14]; 0.000504 s⁻¹ in data set [15]. Further, the koff in [16] stood at 0.00046 s⁻¹; in [18], 0.00043 s⁻¹; in data set [19] it was 0.00045 s⁻¹; in data set [20] it was 0.00047 s⁻¹; in data set [5] it was 0.0005 s⁻¹; in data set [21] it was 0.00046 s⁻¹. Moreover, the kon in data set [7] turned out to be 472000 M⁻¹ s⁻¹; in data set [10], 310000 M⁻¹ s⁻¹; in [2], 1.4e+06 M⁻¹ s⁻¹; in data set [13] it was 530000 M⁻¹ s⁻¹; in [14], 730000 M⁻¹ s⁻¹; in data set [15] it was 405000 M⁻¹ s⁻¹. Moreover, the kon in data set [16] was 540000 M⁻¹ s⁻¹; in [18], 520000 M⁻¹ s⁻¹; in [19] it was 570000 M⁻¹ s⁻¹; in data set [20], 570000 M⁻¹ s⁻¹; in data set [5], 520000 M⁻¹ s⁻¹; in [21], 590000 M⁻¹ s⁻¹. For the same molecule, in data set [8], the “Average CSI-BLI ΔResponse” value was -0.01 nm. Further, the “IC50 … human whole blood” value is 0.3 nM in data set [9] and 1.12 nM in [6]. Also, the “y-max, LPS+IL-12 dependent IFNg production, human whole blood” value in data set [9] was determined as 98%. The “KD ratio (KD pH 5/KD pH 7)” value in data set [12] is 0.33. Further, in data set [12], the “kd ratio (kd pH 5/kd pH 7)” value was determined as 0.57. In data set [17], the “IC50, IL-18-induced IFNγ release, KG-1 cells” value is 0.3 nM.
